Measurements: the supplement of paper PMC9112550, “Optimization of the antimicrobial peptide Bac7 by deep mutational scanning” (BMC Biology, 2022)

tested on: Escherichia coli TOP10; experiment: shrunken log2 fold change of peptide-encoding DNA abundance (4.5 h post-induction vs induction); higher = less antimicrobial activity (less host growth inhibition); conditions: time post-induction: 4.5 h; library: site-saturation at positions 5, 18, 19, 20
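Note: peptides expressed intracellularly from a pBAD plasmid library in pooled LB shake-flask culture, induced with 0.3% L-arabinose, DNA abundance read by NGS, three biological replicates, DESeq2 with apeglm shrinkage.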

| Sequence | shrunken log2 fold change |
| --- | --- |
| RRIRRRPPRLPRPRPRPFPTPRP | 0.164 |
| RRIRGRPPRLPRPRPRPQYPPRP | -0.865 |
| RRIRFRPPRLPRPRPRPWRDPRP | -0.136 |
| RRIRFRPPRLPRPRPRPGDYPRP | -0.406 |
| RRIRLRPPRLPRPRPRPRDDPRP | 0.108 |
| RRIRTRPPRLPRPRPRPIYEPRP | -0.246 |
| RRIRERPPRLPRPRPRPLFNPRP | -0.62 |
| RRIRARPPRLPRPRPRPIIEPRP | 0.00879 |
| RRIRPRPPRLPRPRPRPFWFPRP | -0.0717 |
| RRIRRRPPRLPRPRPRPNMLPRP | -0.061 |
| RRIRARPPRLPRPRPRPACFPRP | 0.736 |
| RRIRGRPPRLPRPRPRPIYFPRP | -0.533 |
| RRIRWRPPRLPRPRPRPPEGPRP | 0.163 |
| RRIRVRPPRLPRPRPRPCTFPRP | -0.0858 |
| RRIRWRPPRLPRPRPRPTAAPRP | 1.65 |
| RRIRSRPPRLPRPRPRPVFGPRP | 0.0263 |
| RRIRFRPPRLPRPRPRPEIAPRP | -0.0213 |
| RRIRGRPPRLPRPRPRPTEEPRP | 0.525 |
| RRIRARPPRLPRPRPRPTRLPRP | 0.545 |
| RRIRNRPPRLPRPRPRPVSWPRP | 0.162 |
| RRIRNRPPRLPRPRPRPGWNPRP | 0.324 |
| RRIRDRPPRLPRPRPRPIDTPRP | -0.3 |

| Sequence | shrunken log2 fold change |
| --- | --- |
| RRIRGRPPRLPRPRPRPWVIPRP | -0.257 |
| RRIRCRPPRLPRPRPRPYEDPRP | -0.01 |
| RRIRCRPPRLPRPRPRPDSPPRP | -0.353 |
| RRIRMRPPRLPRPRPRPEYNPRP | 0.25 |
| RRIRSRPPRLPRPRPRPTGNPRP | -0.275 |
| RRIRHRPPRLPRPRPRPSQNPRP | -0.0324 |
| RRIRNRPPRLPRPRPRPSVSPRP | -0.44 |
| RRIRIRPPRLPRPRPRPPNDPRP | -0.55 |
| RRIRMRPPRLPRPRPRPTSCPRP | 0.415 |
| RRIRCRPPRLPRPRPRPEFPPRP | 0.278 |
| RRIRGRPPRLPRPRPRPEWLPRP | 1.5 |
| RRIRWRPPRLPRPRPRPQNQPRP | -0.265 |
| RRIRKRPPRLPRPRPRPVNAPRP | 0.025 |
| RRIRFRPPRLPRPRPRPPLLPRP | -0.0704 |
| RRIRIRPPRLPRPRPRPAWKPRP | 0.123 |
| RRIRGRPPRLPRPRPRPLYKPRP | 0.0468 |
| RRIRARPPRLPRPRPRPPRRPRP | 0.923 |
| RRIRMRPPRLPRPRPRPTPYPRP | 0.2 |
| RRIRDRPPRLPRPRPRPVTFPRP | -0.0135 |
| RRIRPRPPRLPRPRPRPDQYPRP | -0.114 |
| RRIRGRPPRLPRPRPRPQYCPRP | 0.192 |
| RRIRMRPPRLPRPRPRPTPWPRP | 0.844 |

| Sequence | shrunken log2 fold change |
| --- | --- |
| RRIRKRPPRLPRPRPRPNQKPRP | 0.11 |
| RRIRARPPRLPRPRPRPVDGPRP | 0.381 |
| RRIRQRPPRLPRPRPRPENFPRP | -0.00776 |
| RRIRNRPPRLPRPRPRPGCCPRP | -0.0641 |
| RRIRKRPPRLPRPRPRPCVNPRP | 0.0687 |
| RRIRARPPRLPRPRPRPYLQPRP | -0.276 |
| RRIRDRPPRLPRPRPRPSMNPRP | -0.152 |
| RRIRRRPPRLPRPRPRPIIQPRP | -0.342 |
| RRIRCRPPRLPRPRPRPYDSPRP | 0.00489 |
| RRIRLRPPRLPRPRPRPMICPRP | 0.13 |
| RRIRNRPPRLPRPRPRPDSKPRP | -0.335 |
| RRIRARPPRLPRPRPRPLHLPRP | 0.0337 |
| RRIRVRPPRLPRPRPRPLCRPRP | -0.149 |
| RRIRARPPRLPRPRPRPWIYPRP | -0.647 |
| RRIRFRPPRLPRPRPRPQSLPRP | -0.274 |
| RRIRKRPPRLPRPRPRPAWWPRP | 0.577 |
| RRIRQRPPRLPRPRPRPWVRPRP | -0.112 |
| RRIRRRPPRLPRPRPRPDDEPRP | 0.0458 |
| RRIRRRPPRLPRPRPRPCYSPRP | -0.00167 |
| RRIRLRPPRLPRPRPRPIRYPRP | -0.272 |
| RRIRERPPRLPRPRPRPKGFPRP | 0.0527 |
| RRIRPRPPRLPRPRPRPRMLPRP | 0.00647 |

| Sequence | shrunken log2 fold change |
| --- | --- |
| RRIRYRPPRLPRPRPRPLIRPRP | -0.85 |
| RRIRERPPRLPRPRPRPSLRPRP | -0.313 |
| RRIRTRPPRLPRPRPRPQNKPRP | -0.664 |
| RRIRIRPPRLPRPRPRPNKCPRP | -0.438 |
| RRIRDRPPRLPRPRPRPCYVPRP | -0.116 |
| RRIRWRPPRLPRPRPRPWRFPRP | 0.0309 |
| RRIRVRPPRLPRPRPRPRVVPRP | 0.2 |
| RRIRHRPPRLPRPRPRPDGVPRP | 0.0513 |
| RRIRTRPPRLPRPRPRPLVFPRP | -0.214 |
| RRIRGRPPRLPRPRPRPFMDPRP | -0.000933 |
| RRIRWRPPRLPRPRPRPHWQPRP | -0.00204 |
| RRIRKRPPRLPRPRPRPLSGPRP | -0.0828 |
| RRIRMRPPRLPRPRPRPVWHPRP | 0.137 |
| RRIRQRPPRLPRPRPRPTARPRP | 0.219 |
| RRIRTRPPRLPRPRPRPVLDPRP | -0.0579 |
| RRIRMRPPRLPRPRPRPCPYPRP | -0.126 |
| RRIRRRPPRLPRPRPRPWTQPRP | -0.0997 |
| RRIRNRPPRLPRPRPRPELRPRP | 0.0572 |
| RRIRKRPPRLPRPRPRPDQLPRP | 0.107 |
| RRIRWRPPRLPRPRPRPVICPRP | -0.151 |
| RRIRMRPPRLPRPRPRPDQKPRP | -0.0396 |
| RRIRSRPPRLPRPRPRPDWCPRP | 0.224 |

| Sequence | shrunken log2 fold change |
| --- | --- |
| RRIRARPPRLPRPRPRPKYTPRP | -0.013 |
| RRIRRRPPRLPRPRPRPCIHPRP | -0.402 |
| RRIRIRPPRLPRPRPRPEEMPRP | -0.416 |
| RRIRIRPPRLPRPRPRPTHTPRP | -0.448 |
| RRIRERPPRLPRPRPRPINDPRP | -0.223 |
| RRIRFRPPRLPRPRPRPMESPRP | 0.0556 |
| RRIRERPPRLPRPRPRPPENPRP | 0.222 |
| RRIRHRPPRLPRPRPRPTVRPRP | 0.165 |
| RRIRCRPPRLPRPRPRPWDIPRP | -0.179 |
| RRIRARPPRLPRPRPRPQLDPRP | 0.654 |
| RRIRMRPPRLPRPRPRPFGDPRP | 0.0178 |
| RRIRTRPPRLPRPRPRPGIFPRP | -0.146 |
| RRIRVRPPRLPRPRPRPWVGPRP | -0.0497 |
| RRIRRRPPRLPRPRPRPLIHPRP | 0.125 |
| RRIRRRPPRLPRPRPRPSGCPRP | 0.212 |
| RRIRFRPPRLPRPRPRPEKWPRP | 0.109 |
| RRIRCRPPRLPRPRPRPGMEPRP | 0.183 |
| RRIRIRPPRLPRPRPRPMPRPRP | 0.0826 |
| RRIRKRPPRLPRPRPRPYRHPRP | -1.11 |
| RRIRQRPPRLPRPRPRPHCNPRP | -0.11 |
| RRIRRRPPRLPRPRPRPTAGPRP | 0.109 |
